Patent publication US6110695A, “Modulating the interaction of the chemokine, B Lymphocyte Hemoattractant, and its Receptor, BLR1” (The Regents of the University of California, priority 1997, dated 2000)

B1: BLC: novel CXC chemokine; baculovirus-expressed mouse BLC (SEQ ID NO:2), mature protein starting at isoleucine 22 (protein)
chain: MRLSTATLLLLLASCLSPGHGILEAHYTNLKCRCSGVISTVVGLNIIDRIQVTPPGNGCPKTEVVIWTKMKKVICVNPRAKWLQRLLRHVQSKSLSSTPQAPVSKRRAA

Columns and labels:
B cells = assay: Transwell chemotaxis of spleen B cells; assay type: cell-based, mouse
Description: (§1) FIGS. 1(a)-(g). Chemotactic activity of BLC on leukocyte subtypes. Results are expressed as the percentage of input cells of each subtype migrating to the lower chamber of a Transwell filter. FIG. 1a show migration of B cells; FIG. 1b, CD4+T cells; FIG. 1c, CD8+T cells; FIG. 1d; granulocytes; and FIG. 1e, monocytes/macrophages to BLC. Positive controls are SDF1a (FIGS. 1a, b, c, e) and IL8 (FIG. 1d). […] BLC was added to the upper or lower chamber of the apparatus as indicated. […] Data points with error bars represent the mean 1 s.d. for triplicates; individual data points are shown for duplicates. Each experiment was performed a minimum of two times.
(§2) To test this possibility, chemotaxis assays were performed with lymphocytes from mouse spleen and baculovirus-expressed BLC estimated to bc greater than 95% pure by silver staining. […] An alternative possibility is that high potency is not rcquired for a chemokine that is expressed constitutively within lymphoid tissues.
(§3) Chemotaxis. Lymphocytes and macrophages were obtained from spleens of C57BL/6 mice. For macrophage chemotaxis, B cells were depleted by passage over a MACS column (Milteny Biotec, Auburn, Calif.) after incubation with biotinylated anti-B220 antibodies and streptavidin-coated magnetic beads. Granulocytes were obtained from mouse bone marrow suspensions. Mouse BLR1 transfected Jurkat cells were obtained by transfection with pREP4 containing the mouse BLR1 coding region (16), isolated by RT-PCR from mouse spleen RNA, and an amino terminal prolactin leader sequence and FLAG epitope (23). Positive clones were identified using the anti-FLAG antibody M1 (Kodak). Chemotaxis assays were performed as previously described (15) and subsets of migrating cells were identified by flow cytometry using antibodies specific for B220, CD4, CD8 (Pharmingen, San Diego, Calif.) and Mac-1 (Caltag, South San Francisco, Calif.). Granulocytes were identified by their characteristic large side scatter profile. In some experiments, cells were preincubated with 100 ng/ml pertussis toxin (List Biol. Labs, Campbell, Calif.) for 2 hrs at 37° C. IL-8 (R&D Systems, Minneapolis, Minn.) and synthetic human SDF1 a (N33A) synthesized by native chemical ligation (Gryphon Sciences, South San Francisco) were used as positive controls. SDF1a (N33A) has identical activity to native human and mouse SDF1a (24, 25).

granulocytes = assay: Transwell chemotaxis of bone marrow granulocytes; assay type: cell-based, mouse; conditions: FIG. 1d
Description: as §1, §2
(§4) Chemotaxis. Lymphocytes and macrophages were obtained from spleens of C57BL/6 mice. For macrophage chemotaxis, B cells were depleted by passage over a MACS column (Milteny Biotec, Auburn, Calif.) after incubation with biotinylated anti-B220 antibodies and streptavidin-coated magnetic beads. Granulocytes were obtained from mouse bone marrow suspensions. […]

[1] = tested on: spleen monocytes/macrophages; assay: Transwell chemotaxis of spleen monocytes/macrophages; assay type: cell-based, mouse; conditions: FIG. 1e
Description: as §1, §2, §4

CXCR2 = assay: Calcium flux in 293 cells transfected with CXCR2; assay type: cell-based; conditions: 293 cells transfected with CXCR2, FIG. 2d
Description: (§5) FIG. 2(a)-(f). BLR1-mediated calcium mobilization and chemotaxis in response to BLC. HEK 293 cells, stably transfected with the indicated chemokine receptors (FIGS. 2a-d), were loaded with the calcium probe Indo-1 and assayed by spectrofluorimetry for changes in intracellular calcium in response to BLC. FIG. 2a, Calcium flux as a function of BLC concentration (nM). FIG. 2b, Specificity of the response of BLR1 to BLC. FIG. 2c, Lack of response to BLC in CCR1-transfected cells. FIG. 2d, Lack of response to BLC in CXCR2-transfected cells. FIG. 2e, Percentage of maximal calcium flux as a function of BLC concentration in BLR1-transfected 300-19 cells. FIG. 2f, Chemotactic response of BLR1-transfected Jurkat cells to BLC. Results of chemotaxis are expressed as in FIG. 1.
(§6) We therefore tested whether BLC could signal through BLR1. […] Using BLR1 transfected 300-19 pre-B cells a more complete dose response curve was obtained showing that the response to BLC is saturable (FIG. 2e). […] We next tested the ability of BLC to stimulate chemotaxis through BLR1.
(§7) Calcium fluorimetry on transfected 293 and 300-19 cells. Native mouse BLR1 was subcloned into pBK-CMV (Stratagene) and used to transfect HEK 293 cells and 300-19 pre-B cells. […] Intracellular calcium concentrations were calculated using the Hitachi 4500 Intracellular Cation Measurement program.

CD4 and CD8 T cells = assay: Transwell chemotaxis of spleen CD4 and CD8 T cells; assay type: cell-based; conditions: mouse spleen lymphocytes, FIG. 1b, c
Description: as §1, §2, §4

mouse BLR1 = assay: Calcium flux in HEK 293 cells stably transfected with mouse BLR1; assay type: cell-based; conditions: HEK 293 cells stably transfected with mouse BLR1, FIG. 2a, b
Description: as §5, §6, §7

BLR1 [2] = assay: Chemotaxis of BLR1 transfected Jurkat T cells; assay type: cell-based, mouse; conditions: Jurkat T cells transfected with BLR1
Description: as §5, §6, §4

CCR1 = assay: Calcium flux in 293 cells transfected with CCR1; assay type: cell-based; conditions: 293 cells transfected with CCR1, FIG. 2c
Description: as §5, §6, §7

BLR1 [3] = assay: Calcium flux in BLR1 transfected 300-19 pre-B cells; assay type: cell-based, mouse; conditions: FIG. 2e
Description: as §5, §6, §7

BLR1- negative cells = assay: Chemotaxis of BLR1-negative Jurkat cells; assay type: cell-based
Description: as §6
as §3, with “In some experiments, cells were preincubated with 100 ng/ml pertussis toxin (List Biol. Labs, Campbell, Calif.) for 2 hrs at 37° C. IL-8 (R&D Systems, Minneapolis, Minn.) and synthetic human SDF1 a (N33A) synthesized by native chemical ligation (Gryphon Sciences, South San Francisco) were used as positive controls. SDF1a (N33A) has identical activity to native human and mouse SDF1a (24, 25).” left out

CCR2 = assay: Calcium flux in 293 cells transfected with CCR2; assay type: cell-based
Description: as §6
(§8) Calcium fluorimetry on transfected 293 and 300-19 cells. Native mouse BLR1 was subcloned into pBK-CMV (Stratagene) and used to transfect HEK 293 cells and 300-19 pre-B cells. G418-resistant clones were tested for BLR1 expression using an affinity purified rabbit anti-mouse antiserum that is specific for the BLR1 amino terminus. HEK293 cells expressing CCR1, CCR2 and CXCR2 were from the Cardiovascular Research Institute, UCSF. Ca2+-mobilization studies were performed as described (26) using a Hitachi 4500 spectrometer. Intracellular calcium concentrations were calculated using the Hitachi 4500 Intracellular Cation Measurement program.

Control transfectants = assay: Calcium flux in control transfectants of 293 and 300-19 cells; assay type: cell-based; conditions: control transfectants of either cell line (293, 300-19)
Description: as §6, §8

Row | Molecule | BLC-induced migration of pertussis toxin pretreated B cells (B cells; preincubated with 100 ng/ml pertussis toxin for 2 hrs at 37° C., FIG. 1g) | chemotactic activity towards granulocytes (granulocytes) | chemotactic activity for spleen monocytes/macrophages [1] | calcium flux (CXCR2) | chemotactic activity towards CD4 and CD8 T cells (CD4 and CD8 T cells) | calcium flux (mouse BLR1) | chemotactic response (BLR1 [2]) | calcium flux (CCR1) | calcium flux dose response (BLR1 [3]) | potency as a B cell attractant (B cells; baculovirus expressed protein, compared with most chemokines) | migration of cells in the absence of a gradient (B cells; cells incubated with BLC in the absence of a gradient, FIG. 1f) | chemotactic response in B cells (B cells; mouse spleen lymphocytes, FIG. 1a) | chemotactic response (BLR1- negative cells) | calcium flux (CCR2) | calcium flux response (Control transfectants)
1 | pertussis toxin [reference compound] | failed to migrate | – | – | – | – | – | – | – | – | – | – | – | – | – | –
2 | B1 | – | no chemotactic activity | weak but reproducible chemotactic activity | failed to stimulate a calcium flux | limited activity | dose dependent calcium flux | showed a chemotactic response | failed to stimulate a calcium flux | saturable | potency less than that of most chemokines | failed to migrate | strong chemotactic response | failed to respond | failed to stimulate a calcium flux | did not respond
